In general, stoichiometry N refers to the number of molecules, sites or subunits per partner or assembly.

One experiment concerns the target MtTSPS (Medicago truncatula, UniProt G7K2D1). Description: X-ray crystallography, […] Å. To be noted: co-crystallization, 10-molar excess of ligand, pH 6.5; polyamine-binding groove.
Experiment [1] deals with MtTSPS-R37E mutant (Medicago truncatula). Description: SEC. Background: In gel filtration, larger molecules generally elute earlier.
In experiment [2] the target is thermospermine synthase from Medicago truncatula (MtTSPS) (Medicago truncatula). The experiment can be described thus: SAXS.
Experiment [3] shares this target. The experiment can be described thus: crystal structure.

In the case of `NCCCCNCCCNCCCN` [TSPM, thermospermine], the “X-ray crystallography, 1.65 Å” value on MtTSPS was “TSPM in the MtTSPS-TSPM complex is bound with aminopropyl group pointing outside the pocket”.
MtTSPS-R37E mutant (enzyme): in experiment [1], the stoichiometry N came to 2.
In the case of “thermospermine synthase from Medicago truncatula (MtTSPS) (enzyme)”, the stoichiometry N in experiment [2] and in experiment [3] was 4 throughout.
